Substitutions are numbered along the chain they refer to. No end group written: not given here. *: point of attachment. sulfate = O=S(=O)(O)*
T1: PSGL-1 on KG-1 cells (human, UniProt Q14242 42-412, sulfated tyrosine residues at the N-terminal site)
T1 construct: whole, on cells; results on KG-1 cells, lysates and membrane fractions are written against this molecule; also called CD162; P-Selectin Glycoprotein Ligand-1
T1 sequence (looked up): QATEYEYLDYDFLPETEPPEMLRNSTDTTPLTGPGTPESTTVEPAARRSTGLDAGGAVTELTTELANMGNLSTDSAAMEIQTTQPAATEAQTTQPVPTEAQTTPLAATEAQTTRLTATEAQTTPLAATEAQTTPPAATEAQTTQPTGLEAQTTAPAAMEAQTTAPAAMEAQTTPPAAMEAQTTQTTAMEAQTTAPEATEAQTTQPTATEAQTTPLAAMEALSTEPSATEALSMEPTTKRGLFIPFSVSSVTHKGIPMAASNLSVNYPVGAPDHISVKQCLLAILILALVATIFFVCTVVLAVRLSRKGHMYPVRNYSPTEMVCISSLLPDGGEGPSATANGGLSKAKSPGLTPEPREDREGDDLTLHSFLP

T2: Lumican (human, UniProt P51884 19-338, contains sulfated tyrosine residues)
T2 construct: The ~80 kDa band was identified as CC4 and lumican together; also called human lumican; H P-ligand 2
T2 sequence (looked up): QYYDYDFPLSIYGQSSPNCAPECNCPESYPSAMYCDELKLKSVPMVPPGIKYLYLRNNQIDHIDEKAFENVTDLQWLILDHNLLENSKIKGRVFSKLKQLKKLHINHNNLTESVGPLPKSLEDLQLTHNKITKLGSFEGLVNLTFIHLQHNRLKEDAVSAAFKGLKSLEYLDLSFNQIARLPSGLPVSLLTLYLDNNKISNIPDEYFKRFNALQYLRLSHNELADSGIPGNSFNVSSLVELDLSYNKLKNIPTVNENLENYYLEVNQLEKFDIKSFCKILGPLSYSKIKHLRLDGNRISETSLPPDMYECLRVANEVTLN

B1: EGR (peptide)
peptide: REEGRQHFFLLEGRSSYS
notes: also called negative control peptide
B2: CONY1 (scFv)
scFv: EVQLVESGGGVVRPGGSLRLSCAASGFTFDDYGMSWVRQAPGKGLEWVSGINWNGGSTGYADSVKGRFTISRDNAKNSLYLQMNSLRAEDTAVYYCARMRAPVIWGQGTLVTVSRGGGGSGGGGSGGGGSSELTQDPAVSVALGQTVRITCQGDSLRSYYASWYQQKPGQAPVLVIYGKNNRPSGIPDRFSGSSSGNTASLTITGAQAEDEADYYCNSRDSSGNHVVFGGGTKLTVLGAAAKAK
notes: also called Y1-kak; Y1 scFv monomer
B3: F-YY (peptide)
peptide: VRPEHPAETEYESLYPEDDL
notes: also called Fibrinogen-γ-prime chain peptide, non-sulfated
B4: P-2-S (peptide)
peptide: TDLY(sulfate)DY(sulfate)Y(sulfate)PEEDTE
notes: also called residues 273-285 of GPIbα, sulfated
B5: P-3-S (peptide)
peptide: GDEGDTDLY(sulfate)DY(sulfate)Y(sulfate)P
notes: also called residues 268-280 of GPIbα, sulfated
B6: Y1-cys-kak (cysteine dimer) (other)
scFv 1: MEVQLVESGGGVVRPGGSLRLSCAASGFTFDDYGMSWVRQAPGKGLEWVSGINWNGGSTGYADSVKGRFTISRDNAKNSLYLQMNSLRAEDTAVYYCARMRAPVIWGQGTLVTVSRGGGGSGGGGSGGGGSSELTQDPAVSVALGQTVRITCQGDSLRSYYASWYQQKPGQAPVLVIYGKNNRPSGIPDRFSGSSSGNTASLTITGAQAEDEADYYCNSRDSSGNHVVFGGGTKLTVLGGGGCKAK
scFv 2: B6 scFv 1
modifications: Interchain disulfide between Cys 243 of chain 1 and Cys 243 of chain 2; in the FACS of paragraph 474 the dimer also carried FITC.
notes: also called Y1-cys-kak scFv dimer; S-S Y1 dimer
B7: Y1 scFv (scFv)
scFv: EVQLVESGGGVVRPGGSLRLSCAASGFTFDDYGMSWVRQAPGKGLEWVSGINWNGGSTGYADSVKGRFTISRDNAKNSLYLQMNSLRAEDTAVYYCARMRAPVIWGQGTLVTVSRGGGGSGGGGSGGGGSSELTQDPAVSVALGQTVRITCQGDSLRSYYASWYQQKPGQAPVLVIYGKNNRPSGIPDRFSGSSSGNTASLTITGAQAEDEADYYCNSRDSSGNHVVFGGGTKLTVLGAAAEQKLISEEDLNGAA
notes: Fully human scFv from the Nissim I phage library; Used biotin-labelled in most Western blots; also called scFv Y1; scFv-Y1
B8: Y17 scFv (scFv)
scFv: B7 scFv with M99L, R100T, A101H, V103Y, I104F
notes: Human scFv selected on platelets in the same way as Y1; also called biotin labeled-Y17
B9: Y1-IgG (antibody, V domains shown)
VH: EVQLVESGGGVVRPGGSLRLSCAASGFTFDDYGMSWVRQAPGKGLEWVSGINWNGGSTGYADSVKGRFTISRDNAKNSLYLQMNSLRAEDTAVYYCARMRAPVIWGQGTLVTVSR
VL: SELTQDPAVSVALGQTVRITCQGDSLRSYYASWYQQKPGQAPVLVIYGKNNRPSGIPDRFSGSSSGNTASLTITGAQAEDEADYYCNSRDSSGNHVVFGGGTKLTVL
B10: F-Y*Y* (peptide)
peptide: VRPEHPAETEY(sulfate)ESLY(sulfate)PEDDL
notes: also called Fibrinogen-γ-prime chain peptide, sulfated

Tests used:
Y1 scFv [1] = target: B7; assay: competition ELISA: Y1 0.25 µg/well preincubated with peptide at 25 µM, residual binding to glycocalicin
Y1 scFv [2] = target: B7; assay: competition ELISA: Y1 0.25 µg/well preincubated with peptide at 0.5 µM, residual binding to glycocalicin
Y1 scFv [3] = target: B7; assay: competition ELISA: Y1 0.25 µg/well preincubated with peptide at 2.5 µM, residual binding to glycocalicin
Y1 scFv [4] = target: B7; assay: competitive FACS: Y1-scFv 1 µg preincubated with peptide at 200 µM, residual binding to washed platelets
Experimental: (§1) In addition, FACS analysis using washed platelets was carried out. […] A polystyrene microtiter maxisorb plate was coated with (a) purified glycocalicin or (b) washed platelets. […] The plate was then incubated with rabbit anti-scFv followed by addition of anti rabbit-HRP (horse radish peroxidase) and HRP substrate. […] The optical density was measured at A₄₀₅. Each sample was assayed in duplicate, and the average was calculated.

Y1 scFv [5] = target: B7; assay: competitive FACS: Y1-scFv 1 µg preincubated with peptide at 2.5 µM, residual binding to washed platelets
Experimental: as §1

PSGL-1 on KG-1 cells [6] = target: T1, PSGL-1 on KG-1 cells; assay: second radio receptor binding assay on KG-1 cells, labeled tracer 100 ng/tube
Experimental: (§2) The assay tubes contained 5×10⁶ KG-1 cells per 0.2 ml and a labeled tracer with varying amounts of unlabeled competitor, in PBS+0.1% BSA, pH 7.4. After one hour incubation with agitation at 4° C., the cells were thoroughly washed with cold buffer and taken for radioactivity counting.

Y1 scFv [7] = target: B7; assay: competition ELISA: peptide (1, 10, 100 µM) preincubated with scFv Y1, binding to immobilized glycocalicin
PSGL-1 on KG-1 cells [8] = target: T1, PSGL-1 on KG-1 cells; assay: radio receptor binding assay on KG-1 cells, tracer 125I-Y1-IgG 2 ng/tube
Experimental: as §2

PSGL-1 on KG-1 cells [9] = target: T1, PSGL-1 on KG-1 cells; assay: radio receptor assay on KG-1 cells, dimer as competitor
PSGL-1 on KG-1 cells [10] = target: T1, PSGL-1 on KG-1 cells; assay: FACS on KG-1 cells, FITC-labeled
PSGL-1 on KG-1 cells [11] = target: T1, PSGL-1 on KG-1 cells; assay: radioreceptor assay, ELISA or FACS; KG-1 cells
Lumican = target: T2, Lumican; assay: Western blot of human plasma proteins
PSGL-1 on KG-1 cells [12] = target: T1, PSGL-1 on KG-1 cells; assay: Western blot of RP-HPLC KG-1 membrane fraction after O-Sialo glycoprotein endopeptidase, 30' at 37° C.
[13] = target: T3, GPIbα small N-terminal 42 kDa fragment (His1-Leu275) (human, UniProt P07359 17-291); assay: Western blot of cathepsin G digested glycocalicin
T3 construct: also called smaller N-terminal fragment (cathepsin G)
Text: Glycocalicin and glycocalicin fragments generated by cathepsin G digestion were separated on SDS-polyacrylamide gels and transferred to nitrocellulose.

PSGL-1 on KG-1 cells [14] = target: T1, PSGL-1 on KG-1 cells; assay: FACS on KG-1 cells

T3 sequence (P07359 17-291 limits assumed): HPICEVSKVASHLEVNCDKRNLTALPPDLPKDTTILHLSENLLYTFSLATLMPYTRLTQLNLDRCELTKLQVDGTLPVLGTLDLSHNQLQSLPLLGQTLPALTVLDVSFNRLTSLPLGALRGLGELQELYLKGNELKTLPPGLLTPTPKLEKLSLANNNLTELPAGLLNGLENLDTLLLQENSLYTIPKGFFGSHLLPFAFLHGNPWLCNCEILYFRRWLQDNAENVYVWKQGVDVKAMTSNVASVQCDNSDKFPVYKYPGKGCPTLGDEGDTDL

B1
Residual Binding of Y1 (% of baseline) (Y1 scFv [1]): 89% | Residual Binding of Y1 (% of baseline) (Y1 scFv [2]): 121% | Residual Binding of Y1 (% of baseline) (Y1 scFv [3]): 100% | Residual Binding of Y1 (% of baseline) (Geo Mean) (Y1 scFv [4]): 119% | Residual Binding of Y1 (% of baseline) (Geo Mean) (Y1 scFv [5]): 96%

B2
Kd (PSGL-1 on KG-1 cells [6]): ~1000 nM

B3
binding result (Y1 scFv [7]): no binding (tested: 100 µM)

B4
Residual Binding of Y1 (% of baseline) (Y1 scFv [1]): 15% | Residual Binding of Y1 (% of baseline) (Y1 scFv [2]): 78% | Residual Binding of Y1 (% of baseline) (Y1 scFv [3]): 52% | Residual Binding of Y1 (% of baseline) (Geo Mean) (Y1 scFv [4]): 7% | Residual Binding of Y1 (% of baseline) (Geo Mean) (Y1 scFv [5]): 61%

B5
Residual Binding of Y1 (% of baseline) (Y1 scFv [1]): 21% | Residual Binding of Y1 (% of baseline) (Y1 scFv [2]): 80% | Residual Binding of Y1 (% of baseline) (Y1 scFv [3]): 67% | Residual Binding of Y1 (% of baseline) (Geo Mean) (Y1 scFv [4]): 26% | Residual Binding of Y1 (% of baseline) (Geo Mean) (Y1 scFv [5]): 82%

B6
Kd (PSGL-1 on KG-1 cells [6]): ~50 nM | fold higher affinity than CONY1 (PSGL-1 on KG-1 cells [6]): 20 fold | Kd (PSGL-1 on KG-1 cells [8]): ~40 nM | fold higher affinity than CONY1 (PSGL-1 on KG-1 cells [8]): 30 fold | fold lower affinity than the full Y1 antibody (PSGL-1 on KG-1 cells [8]): 2 fold | fold more efficient than the monomer (PSGL-1 on KG-1 cells [9]): 30 fold | fold less material than the monomer (PSGL-1 on KG-1 cells [10]): 10 fold | fold higher binding than the Y1 scFv monomer (PSGL-1 on KG-1 cells [11]): ≥ 20 fold

B7
binding result (Lumican): binds | binding result (PSGL-1 on KG-1 cells [12]): binds

B8
binding result [13]: no binding | binding result (PSGL-1 on KG-1 cells [14]): binds

B9
Kd (PSGL-1 on KG-1 cells [8]): ~20 nM

B10
binding result (Y1 scFv [7]): no binding (tested: 100 µM)

— patent publication US20040001839A1 (published 2004)
